We go through eight molecules from US20180155451A1 (published 2018).

The target of assay [1] is T1, FcγRIIa H (FcγRIIa, type H allotype, His at position 131), extracellular domain with C-terminal His tag (human, UniProt P12318 34-217).
T1 construct: extracellular domain; Soluble receptor expressed in FreeStyle293 cells; analyte in Biacore; also called FcgRIIa H; 2aH; not shown: C-terminal His tag
T1 sequence (looked up): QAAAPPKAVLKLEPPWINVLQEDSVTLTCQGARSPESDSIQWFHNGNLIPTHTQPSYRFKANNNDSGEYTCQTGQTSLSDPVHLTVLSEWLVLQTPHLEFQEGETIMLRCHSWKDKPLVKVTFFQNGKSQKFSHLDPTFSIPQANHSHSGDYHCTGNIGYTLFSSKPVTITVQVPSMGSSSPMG
As to the kind of experiment: SPR (Biacore), captured antibody, FcγR as analyte. On the technique in general: In SPR one partner is held on a chip, and binding of the other changes the refractive index at the surface.

Assay [2] has as its target T2, FcγRIIb, extracellular domain with C-terminal His tag (human, UniProt P31994 43-217).
T2 construct: extracellular domain; Soluble receptor expressed in FreeStyle293 cells; analyte in Biacore; also called FcgRIIb; 2b; not shown: C-terminal His tag
T2 sequence (looked up): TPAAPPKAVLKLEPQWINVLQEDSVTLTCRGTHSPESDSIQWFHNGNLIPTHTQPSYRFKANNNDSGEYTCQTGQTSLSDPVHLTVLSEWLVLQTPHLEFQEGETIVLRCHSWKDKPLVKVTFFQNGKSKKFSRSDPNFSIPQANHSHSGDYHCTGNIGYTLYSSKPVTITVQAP
Briefly: SPR (Biacore), captured antibody, FcγR as analyte.

The target in assay [3] is T1, FcγRIIa H (FcγRIIa, type H allotype, …). As to the kind of experiment: ratio of He/Con_2aH to He/Con_2b (FcγRIIa H over FcγRIIb), SPR.

B1: GpH7-A5/GpH7-B3 variant S298_18N/GpL16-k0 (antibody, human IgG1, kappa)
heavy 1: not shown
heavy 2: not shown
light: DIVMTQSPLSLPVTPGEPASISCQASESLVHSNRNTYLHWYLQKPGQSPQLLIYKVSNRFSGVPDRFSGSGSGTDFTLKISRVEAEDVGVYYCSQNTHVPPTFGQGTKVEIERTVAAPSVFIFPPSDEQLKSGTASVVCLLNNFYPREAKVQWKVDNALQSGNSQESVTEQDSKDSTYSLSSTLTLSKADYEKHKVYACEVTHQGLSSPVTKSFNRGEC
notes: Heterodimerized IgG1; mutation only in the GpH7-B3 chain; also called He Ab
In the case of B1, the He/Con_2aH in assay [1] was 61.6 relative, GpH7-A5/GpH7-B3/GpL16-k0 = 100. In addition, the He/Con_2b in assay [2] was 48.1 relative, GpH7-A5/GpH7-B3/GpL16-k0 = 100. Moreover, the “He_2aH/2b (IIaH/IIb)” value in assay [3] was 1.28.

B2: GpH7-A5/GpH7-B3 variant S298_10E/GpL16-k0 (antibody, human IgG1, kappa)
heavy 1: not shown
heavy 2: not shown
light: DIVMTQSPLSLPVTPGEPASISCQASESLVHSNRNTYLHWYLQKPGQSPQLLIYKVSNRFSGVPDRFSGSGSGTDFTLKISRVEAEDVGVYYCSQNTHVPPTFGQGTKVEIERTVAAPSVFIFPPSDEQLKSGTASVVCLLNNFYPREAKVQWKVDNALQSGNSQESVTEQDSKDSTYSLSSTLTLSKADYEKHKVYACEVTHQGLSSPVTKSFNRGEC
notes: as for B1
In the case of B2, the He/Con_2aH in assay [1] is 58 relative, GpH7-A5/GpH7-B3/GpL16-k0 = 100. For the same molecule, the He/Con_2b in assay [2] is 47.6 relative, GpH7-A5/GpH7-B3/GpL16-k0 = 100. The “He_2aH/2b (IIaH/IIb)” value in assay [3] was 1.22.

B3: GpH7-A5/GpH7-B3 variant S298_03V/GpL16-k0 (antibody, human IgG1, kappa)
heavy 1: not shown
heavy 2: not shown
light: DIVMTQSPLSLPVTPGEPASISCQASESLVHSNRNTYLHWYLQKPGQSPQLLIYKVSNRFSGVPDRFSGSGSGTDFTLKISRVEAEDVGVYYCSQNTHVPPTFGQGTKVEIERTVAAPSVFIFPPSDEQLKSGTASVVCLLNNFYPREAKVQWKVDNALQSGNSQESVTEQDSKDSTYSLSSTLTLSKADYEKHKVYACEVTHQGLSSPVTKSFNRGEC
notes: as for B1
Take B3: the He/Con_2aH in assay [1] was 85.1 relative, GpH7-A5/GpH7-B3/GpL16-k0 = 100. In addition, the He/Con_2b in assay [2] is 64.5 relative, GpH7-A5/GpH7-B3/GpL16-k0 = 100. The “He_2aH/2b (IIaH/IIb)” value in assay [3] was 1.32.

B4: GpH7-A5/GpH7-B3 variant Q295_16H/GpL16-k0 (antibody, human IgG1, kappa)
heavy 1: not shown
heavy 2: not shown
light: DIVMTQSPLSLPVTPGEPASISCQASESLVHSNRNTYLHWYLQKPGQSPQLLIYKVSNRFSGVPDRFSGSGSGTDFTLKISRVEAEDVGVYYCSQNTHVPPTFGQGTKVEIERTVAAPSVFIFPPSDEQLKSGTASVVCLLNNFYPREAKVQWKVDNALQSGNSQESVTEQDSKDSTYSLSSTLTLSKADYEKHKVYACEVTHQGLSSPVTKSFNRGEC
notes: as for B1
B4: the He/Con_2aH in assay [1] is 78.6 relative, GpH7-A5/GpH7-B3/GpL16-k0 = 100. The He/Con_2b in assay [2] was 62.7 relative, GpH7-A5/GpH7-B3/GpL16-k0 = 100. In addition, the “He_2aH/2b (IIaH/IIb)” value in assay [3] turned out to be 1.25.

B5: GpH7-A5/GpH7-B3 variant S298_20W/GpL16-k0 (antibody, human IgG1, kappa)
heavy 1: not shown
heavy 2: not shown
light: DIVMTQSPLSLPVTPGEPASISCQASESLVHSNRNTYLHWYLQKPGQSPQLLIYKVSNRFSGVPDRFSGSGSGTDFTLKISRVEAEDVGVYYCSQNTHVPPTFGQGTKVEIERTVAAPSVFIFPPSDEQLKSGTASVVCLLNNFYPREAKVQWKVDNALQSGNSQESVTEQDSKDSTYSLSSTLTLSKADYEKHKVYACEVTHQGLSSPVTKSFNRGEC
notes: as for B1
Regarding B5, the He/Con_2aH in assay [1] is 49.9 relative, GpH7-A5/GpH7-B3/GpL16-k0 = 100. Further, the He/Con_2b in assay [2] was 41.1 relative, GpH7-A5/GpH7-B3/GpL16-k0 = 100. For the same molecule, in assay [3], the “He_2aH/2b (IIaH/IIb)” value is 1.21.

B6: GpH7-A5/GpH7-B3 variant Q295_11K/GpL16-k0 (antibody, human IgG1, kappa)
heavy 1: not shown
heavy 2: not shown
light: DIVMTQSPLSLPVTPGEPASISCQASESLVHSNRNTYLHWYLQKPGQSPQLLIYKVSNRFSGVPDRFSGSGSGTDFTLKISRVEAEDVGVYYCSQNTHVPPTFGQGTKVEIERTVAAPSVFIFPPSDEQLKSGTASVVCLLNNFYPREAKVQWKVDNALQSGNSQESVTEQDSKDSTYSLSSTLTLSKADYEKHKVYACEVTHQGLSSPVTKSFNRGEC
notes: as for B1
With B6, the He/Con_2aH in assay [1] is 89.4 relative, GpH7-A5/GpH7-B3/GpL16-k0 = 100. In assay [2], the He/Con_2b is 70.4 relative, GpH7-A5/GpH7-B3/GpL16-k0 = 100. Besides, the “He_2aH/2b (IIaH/IIb)” value in assay [3] came to 1.27.

B7: GpH7-A5/GpH7-B3 variant S298_14T/GpL16-k0 (antibody, human IgG1, kappa)
heavy 1: not shown
heavy 2: not shown
light: DIVMTQSPLSLPVTPGEPASISCQASESLVHSNRNTYLHWYLQKPGQSPQLLIYKVSNRFSGVPDRFSGSGSGTDFTLKISRVEAEDVGVYYCSQNTHVPPTFGQGTKVEIERTVAAPSVFIFPPSDEQLKSGTASVVCLLNNFYPREAKVQWKVDNALQSGNSQESVTEQDSKDSTYSLSSTLTLSKADYEKHKVYACEVTHQGLSSPVTKSFNRGEC
notes: as for B1
B7: the He/Con_2aH in assay [1] is 98.5 relative, GpH7-A5/GpH7-B3/GpL16-k0 = 100. In assay [2], the He/Con_2b was 77.9 relative, GpH7-A5/GpH7-B3/GpL16-k0 = 100. In addition, the “He_2aH/2b (IIaH/IIb)” value in assay [3] was determined as 1.26.

B8: GpH7-A5/GpH7-B3 variant S298_16H/GpL16-k0 (antibody, human IgG1, kappa)
heavy 1: not shown
heavy 2: not shown
light: DIVMTQSPLSLPVTPGEPASISCQASESLVHSNRNTYLHWYLQKPGQSPQLLIYKVSNRFSGVPDRFSGSGSGTDFTLKISRVEAEDVGVYYCSQNTHVPPTFGQGTKVEIERTVAAPSVFIFPPSDEQLKSGTASVVCLLNNFYPREAKVQWKVDNALQSGNSQESVTEQDSKDSTYSLSSTLTLSKADYEKHKVYACEVTHQGLSSPVTKSFNRGEC
notes: as for B1
With B8, the He/Con_2aH in assay [1] is 82.1 relative, GpH7-A5/GpH7-B3/GpL16-k0 = 100. Further, the He/Con_2b in assay [2] was 63.5 relative, GpH7-A5/GpH7-B3/GpL16-k0 = 100. Also, the “He_2aH/2b (IIaH/IIb)” value in assay [3] stood at 1.29.
